Experimental data: article PMC10724393, “FOXA2 Suppression by TRIM36 Exerts Anti‐Tumor Role in Colorectal Cancer Via Inducing NRF2/GPX4‐Regulated Ferroptosis” (Advanced Science, 2023)

B1: GST-FOXA2 (natural protein, human, UniProt Q9Y261 1-457, looked up)
chain: MLGAVKMEGHEPSDWSSYYAEPEGYSSVSNMNAGLGMNGMNTYMSMSAAAMGSGSGNMSAGSMNMSSYVGAGMSPSLAGMSPGAGAMAGMGGSAGAAGVAGMGPHLSPSLSPLGGQAAGAMGGLAPYANMNSMSPMYGQAGLSRARDPKTYRRSYTHAKPPYSYISLITMAIQQSPNKMLTLSEIYQWIMDLFPFYRQNQQRWQNSIRHSLSFNDCFLKVPRSPDKPGKGSFWTLHPDSGNMFENGCYLRRQKRFKCEKQLALKEAAGAAGSGKKAAAGAQASQAQLGEAAGPASETPAGTESPHSSASPCQEHKRGGLGELKGTPAAALSPPEPAPSPGQQQQAAAHLLGPPHHPGLPPEAHLKPEHHYAFNHPFSINNLMSSEQQHHHSHHHHQPHKMDLKAYEQVMHYPGYGSPMPGSLAMGPVTNKTGLDASPLAADTSYYQGVYSRPIMNSS
notes: FOXA2, human cDNA, full length, cloned into pGEX-4T-1-GST; also called purified GST-FOXA2
B2: His-tagged FOXA2 (natural protein, human, UniProt Q9Y261 1-457, looked up)
chain: MLGAVKMEGHEPSDWSSYYAEPEGYSSVSNMNAGLGMNGMNTYMSMSAAAMGSGSGNMSAGSMNMSSYVGAGMSPSLAGMSPGAGAMAGMGGSAGAAGVAGMGPHLSPSLSPLGGQAAGAMGGLAPYANMNSMSPMYGQAGLSRARDPKTYRRSYTHAKPPYSYISLITMAIQQSPNKMLTLSEIYQWIMDLFPFYRQNQQRWQNSIRHSLSFNDCFLKVPRSPDKPGKGSFWTLHPDSGNMFENGCYLRRQKRFKCEKQLALKEAAGAAGSGKKAAAGAQASQAQLGEAAGPASETPAGTESPHSSASPCQEHKRGGLGELKGTPAAALSPPEPAPSPGQQQQAAAHLLGPPHHPGLPPEAHLKPEHHYAFNHPFSINNLMSSEQQHHHSHHHHQPHKMDLKAYEQVMHYPGYGSPMPGSLAMGPVTNKTGLDASPLAADTSYYQGVYSRPIMNSS
notes: FOXA2, human; construct and limits of the His-tagged protein are not described; also called His-FOXA2; source: purified

Tests used:
His-tagged TRIM36 = molecular target: T1, His-tagged TRIM36 (human, UniProt Q9NQ86 1-728); assay: pull-down; GST fusion on glutathione-Sepharose 4B beads, incubated with purified His-tagged partner for 4 h; eluate blotted with anti-His; GST alone as control; conditions: both partners purified
T1 construct: TRIM36, human; construct and limits of the His-tagged protein are not described; also called His-TRIM36; source: purified
T1 sequence (looked up): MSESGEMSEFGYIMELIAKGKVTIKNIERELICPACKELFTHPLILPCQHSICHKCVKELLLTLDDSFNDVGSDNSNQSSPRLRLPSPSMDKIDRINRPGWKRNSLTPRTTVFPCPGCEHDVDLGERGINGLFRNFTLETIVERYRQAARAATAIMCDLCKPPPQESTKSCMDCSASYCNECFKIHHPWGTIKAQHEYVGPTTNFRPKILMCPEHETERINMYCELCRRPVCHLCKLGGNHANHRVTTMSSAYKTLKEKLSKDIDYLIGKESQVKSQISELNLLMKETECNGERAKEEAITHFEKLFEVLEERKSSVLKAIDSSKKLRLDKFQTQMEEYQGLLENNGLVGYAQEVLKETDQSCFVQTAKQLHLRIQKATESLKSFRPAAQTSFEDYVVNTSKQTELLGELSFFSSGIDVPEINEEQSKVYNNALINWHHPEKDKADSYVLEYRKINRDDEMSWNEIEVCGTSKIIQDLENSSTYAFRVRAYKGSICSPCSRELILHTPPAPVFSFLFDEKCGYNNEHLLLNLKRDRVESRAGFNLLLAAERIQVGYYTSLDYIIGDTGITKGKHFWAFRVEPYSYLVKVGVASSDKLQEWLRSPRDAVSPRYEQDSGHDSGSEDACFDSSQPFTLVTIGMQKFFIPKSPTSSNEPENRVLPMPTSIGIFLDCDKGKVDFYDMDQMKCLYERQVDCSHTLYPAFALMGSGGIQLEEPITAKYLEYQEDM

GST-TRIM36 = molecular target: T2, GST-TRIM36 (human, UniProt Q9NQ86 1-728); assay: as above; conditions: both partners purified
T2 construct: TRIM36, human cDNA, full length, cloned into pGEX-4T-1-GST; also called purified GST-TRIM36
T2 sequence (looked up): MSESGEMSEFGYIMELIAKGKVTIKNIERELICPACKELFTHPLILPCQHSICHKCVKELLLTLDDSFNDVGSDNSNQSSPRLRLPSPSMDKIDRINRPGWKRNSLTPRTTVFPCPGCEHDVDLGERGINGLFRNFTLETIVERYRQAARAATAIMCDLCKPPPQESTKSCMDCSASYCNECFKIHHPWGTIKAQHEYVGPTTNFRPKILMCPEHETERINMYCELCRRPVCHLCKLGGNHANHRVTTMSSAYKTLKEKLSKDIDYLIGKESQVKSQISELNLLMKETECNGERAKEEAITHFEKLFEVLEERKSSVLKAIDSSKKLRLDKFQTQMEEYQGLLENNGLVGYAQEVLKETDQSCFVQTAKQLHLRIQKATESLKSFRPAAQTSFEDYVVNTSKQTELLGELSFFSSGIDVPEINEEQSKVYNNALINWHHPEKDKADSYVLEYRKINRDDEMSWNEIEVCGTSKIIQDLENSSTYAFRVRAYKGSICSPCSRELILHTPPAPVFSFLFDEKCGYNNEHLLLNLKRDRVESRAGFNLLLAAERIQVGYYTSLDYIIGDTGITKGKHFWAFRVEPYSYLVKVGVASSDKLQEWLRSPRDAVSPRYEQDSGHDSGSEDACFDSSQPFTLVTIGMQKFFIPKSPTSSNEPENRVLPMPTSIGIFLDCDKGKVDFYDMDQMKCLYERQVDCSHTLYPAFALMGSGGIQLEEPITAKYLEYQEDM

Binder	binding result (His-tagged TRIM36)	binding result (GST-TRIM36)
B1	binds	
B2		binds
